Source: IntAct's records for PubMed 12374762

B1: Aryl-hydrocarbon-interacting protein-like 1 (Homo sapiens), Q9NZN9 (parent)
chain: MDAALLLNVEGVKKTILHGGTGELPNFITGSRVIFHFRTMKCDEERTVIDDSRQVGQPMHIIIGNMFKLEVWEILLTSMRVHEVAEFWCDTIHTGVYPILSRSLRQMAQGKDPTEWHVHTCGLANMFAYHTLGYEDLDELQKEPQPLVFVIELLQVDAPSDYQRETWNLSNHEKMKAVPVLHGEGNRLFKLGRYEEASSKYQEAIICLRNLQTKEKPWEVQWLKLEKMINTLILNYCQCLLKKEEYYEVLEHTSDILRHHPGIVKAYYVRARAHAEVWNEAEAKADLQKVLELEPSMQKAVRRELRLLENRMAEKQEEERLRCRNMLSQGATQPPAEPPTEPPAQSSTEPPAEPPTAPSAELSAGPPAEPATEPPPSPGHSLQH

Variants of: B1
Settings: with nub1_human NUB1, Q9Y5A7
Sequence of nub1_human NUB1, Q9Y5A7 (Q9Y5A7 whole entry): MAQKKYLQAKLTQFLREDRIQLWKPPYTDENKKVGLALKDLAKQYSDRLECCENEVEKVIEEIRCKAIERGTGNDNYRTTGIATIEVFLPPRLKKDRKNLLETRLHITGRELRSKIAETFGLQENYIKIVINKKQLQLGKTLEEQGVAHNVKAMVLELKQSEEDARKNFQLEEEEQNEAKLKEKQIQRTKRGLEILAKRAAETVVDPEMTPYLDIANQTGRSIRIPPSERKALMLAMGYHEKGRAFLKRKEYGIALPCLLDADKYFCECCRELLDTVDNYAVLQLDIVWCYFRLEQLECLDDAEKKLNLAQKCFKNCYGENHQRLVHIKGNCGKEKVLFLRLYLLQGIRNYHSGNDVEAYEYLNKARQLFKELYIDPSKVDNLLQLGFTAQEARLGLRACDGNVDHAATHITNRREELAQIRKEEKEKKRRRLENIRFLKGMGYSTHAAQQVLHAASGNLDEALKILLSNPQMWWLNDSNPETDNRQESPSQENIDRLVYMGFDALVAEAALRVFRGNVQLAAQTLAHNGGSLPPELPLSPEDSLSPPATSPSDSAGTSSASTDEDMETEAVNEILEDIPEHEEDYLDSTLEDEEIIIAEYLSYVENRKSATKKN

| Variant | effect of a mutation on the interaction |
| --- | --- |
| MDAALLLNVEGVKKTILHGGTGELPNFITGSRVIFHFRTMKCDEERTVIDDSRQVGQPMHIIIGNMFKLEVWEILLTSTRVHEVAEFWCDTIHTGVYPILSRSLRQMAQGKDPTEWHVHTCGLANMFAYHTLGYEDLDELQKEPQPLVFVIELLQVDAPSDYQRETWNLSNHEKMKAVPVLHGEGNRLFKLGRYEEASSKYQEAIICLRNLQTKEKPWEVQWLKLEKMINTLILNYCQCLLKKEEYYEVLEHTSDILRHHPGIVKAYYVRARAHAEVWNEAEAKADLQKVLELEPSMQKAVRRELRLLENRMAEKQEEERLRCRNMLSQGATQPPAEPPTEPPAQSSTEPPAEPPTAPSAELSAGPPAEPATEPPPSPGHSLQH [M79T] | decreasing interaction |
| MDAALLLNVEGVKKTILHGGTGELPNFITGSRVIFHFRTMKCDEERTVIDDSRQVGQPMHIIIGNMFKLEVWEILLTSMRVHEVAEFWCDTIHTGVYPILSRSLRQMAQGKDPTEWHVHTCGLANMFAYHTLGYEDLDELQKEPQPLVFVIELLQVDAPSDYQRETWNLSNHEKMKAVPVLHGEGNRLFKLGRYEEASSKYQEAIICLRNLQTKEKPWEVQWLKLEKMINTLILNYCQCLLKKEEYYEVLEHTSDILRHHPGIVKAYYVRARAHAEVWNEAEAKADLQKVLELEPSMQKAVLRELRLLENRMAEKQEEERLRCRNMLSQGATQPPAEPPTEPPAQSSTEPPAEPPTAPSAELSAGPPAEPATEPPPSPGHSLQH [R302L] | decreasing interaction |
| MDAALLLNVEGVKKTILHGGTGELPNFITGSRVIFHFRTMKCDEERTVIDDSRQVGQPMHIIIGNMFKLEVWEILLTSMRVHEVAEFWCDTIHTGVYPILSRSLRQMAQGKDPTEWHVHTCGLANMFAYHTLGYEDLDELQKEPQPLVFVIELLQVDAPSDYQRETWNLSNHEKMKAVPVLHGEGNRLFKLGRYEEASSKYQEAIICLRNLQTKEKPWEVQWLKLEKMINTLILNYCQCLLKKEEYYEVLEHTSDILRHHPSIVKAYYVRARAHAEVWNEAEAKADLQKVLELEPSMQKAVRRELRLLENRMAEKQEEERLRCRNMLSQGATQPPAEPPTEPPAQSSTEPPAEPPTAPSAELSAGPPAEPATEPPPSPGHSLQH [G262S] | decreasing interaction |

Second part, the variant after the results:

| effect of a mutation on the interaction | Variant |
| --- | --- |
| decreasing interaction | MDAALLLNVEGVKKTILHGGTGELPNFITGSRVIFHFRTMKCDEERTVIDDSWQVGQPMHIIIGNMFKLEVWEILLTSMRVHEVAEFWCDTIHTGVYPILSRSLRQMAQGKDPTEWHVHTCGLANMFAYHTLGYEDLDELQKEPQPLVFVIELLQVDAPSDYQRETWNLSNHEKMKAVPVLHGEGNRLFKLGRYEEASSKYQEAIICLRNLQTKEKPWEVQWLKLEKMINTLILNYCQCLLKKEEYYEVLEHTSDILRHHPGIVKAYYVRARAHAEVWNEAEAKADLQKVLELEPSMQKAVRRELRLLENRMAEKQEEERLRCRNMLSQGATQPPAEPPTEPPAQSSTEPPAEPPTAPSAELSAGPPAEPATEPPPSPGHSLQH [R53W] |
| decreasing interaction | MDAALLLNVEGVKKTILHGGTGELPNFITGSRVIFHFRTMKCDEERTVIDDSRQVGQPMHIIIGNMFKLEVWEILLTSMRVHEVAEFWCDTIHTGIYPILSRSLRQMAQGKDPTEWHVHTCGLANMFAYHTLGYEDLDELQKEPQPLVFVIELLQVDAPSDYQRETWNLSNHEKMKAVPVLHGEGNRLFKLGRYEEASSKYQEAIICLRNLQTKEKPWEVQWLKLEKMINTLILNYCQCLLKKEEYYEVLEHTSDILRHHPGIVKAYYVRARAHAEVWNEAEAKADLQKVLELEPSMQKAVRRELRLLENRMAEKQEEERLRCRNMLSQGATQPPAEPPTEPPAQSSTEPPAEPPTAPSAELSAGPPAEPATEPPPSPGHSLQH [V96I] |
